In patent US12539335B2, “Tricyclic polypeptide conjugated drug and use thereof” (CONJUSTAR (ZHUHAI) BIOLOGICS CO., LTD., priority 2021, dated 2026):
Structures can show the parent of a compound that is named as a salt. Starred links: 1 amine or outer side, 2 acyl side, 3 side chain; linkers in the order of their positions; H or OH if unused. Positions of bridges follow the written chain, without caps; N, C: chain ends. Non-standard residues stand in square brackets, D forms with d. Residues, ends and D or L forms follow the SMILES beside them. Chains are numbered I, II in the order given. *: point of attachment. TATA = O=C(CC[*:1])N1CN(C(=O)CC[*:2])CN(C(=O)CC[*:3])C1; Dolaproine = CO[C@@H]([C@@H]1CCCN1)[C@@H](C)C(=O)O; Dil = CC[C@H](C)[C@H](NC)[C@@H](CC(=O)O)OC; 1Nal = N[C@@H](Cc1cccc2ccccc12)C(=O)O; X2 = O=C(CCCC(=O)[*:2])NCCC(=O)[*:1]; PABC = O=C(OCc1ccc(N[*:1])cc1)[*:2]; X1 = C[C@@H](N*)[C@@H](O)c1ccccc1; Hyp = O=C(O)[C@@H]1C[C@@H](O)CN1; hArg = N=C(N)NCCCC[C@H](N)C(=O)O; Cit = NC(=O)NCCC[C@H](N)C(=O)O; Pen = CC(C)(S)[C@H](N)C(=O)O; NMeV = CN[C@H](C(=O)O)C(C)C; Sar = CNCC(=O)O

Columns and labels:
Human Nectin-4 = biological target: T1, Human Nectin-4 (Homo sapiens, UniProt Q96NY8); experiment: Binding capacity to Nectin-4 protein (SPR, Biacore 8K)
T1 construct: purchased GE Healthcare 1006-72
T1 sequence (Q96NY8 32-510): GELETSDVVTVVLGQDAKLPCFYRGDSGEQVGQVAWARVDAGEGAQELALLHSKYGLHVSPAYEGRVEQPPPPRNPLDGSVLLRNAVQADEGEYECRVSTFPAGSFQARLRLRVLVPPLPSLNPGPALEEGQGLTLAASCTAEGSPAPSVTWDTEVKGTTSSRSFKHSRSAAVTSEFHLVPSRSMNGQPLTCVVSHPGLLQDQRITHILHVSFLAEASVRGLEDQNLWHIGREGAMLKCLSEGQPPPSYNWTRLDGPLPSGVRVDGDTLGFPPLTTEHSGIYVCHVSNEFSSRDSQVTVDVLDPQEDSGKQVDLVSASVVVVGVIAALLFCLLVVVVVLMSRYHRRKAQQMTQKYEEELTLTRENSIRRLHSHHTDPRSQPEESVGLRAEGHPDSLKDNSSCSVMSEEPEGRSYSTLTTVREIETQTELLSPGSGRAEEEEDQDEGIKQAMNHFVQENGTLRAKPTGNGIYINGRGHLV
Method: Test Example 1. Binding Capacity Test of the Compounds of the Present Invention to Nectin-4 Protein
To detect the affinity of the compound to be tested to the target protein Nectin-4 using the SPR method.
• Biacore 8K (GE Healthcare) • 96-well Plate (Cat #650101, greiner bio-one) • CM5 chip (Cat #BR-1005-30, GE Healthcare) • Amine Coupling Kit (Cat #BR-1000-50, GE Healthcare) • EDC • NHS • 1 M ethanolamine • 10 mM sodium acetate pH 4.5 (Cat #BR-1003-50, GE Healthcare) • DMSO (Cat #D4540, Sigma) • P20 (Cat #BR-1000-54, GE Healthcare) • PBS (Cat #BR-1006-72, GE Healthcare) • Nectin-4 (Cat #1006-72, GE Healthcare) 3. Experimental Protocol
In this experiment, the amino coupling method was used. The target protein Nectin-4 was directly immobilized on the CM5 chip using Biacore 8K. […] The final data were subjected to Kinetics fitting analysis based on a 1:1 model using Biacore Insight Evaluation Software (V 2.0.15.12933).
1) Preparation of the buffer: 10 mM PBS, pH 7.4, 137 mM NaCl, 2.7 mM KCl, 5% DMSO, and 0.05% P20.
2) Activation of the CM5 chip: The CM5 chip was activated with 400 mM EDC and 100 mM NHS at a flow rate of 10 μL/min for 420 seconds.
3) Coupling of the target protein: The target protein was diluted to 10 μg/mL with 10 mM sodium acetate (pH 4.5) and coupled at a flow rate of 10 μL/min for 284 s. The 1 #, 2 #, and 3 #channels on the chip were used in the experiment, and the coupling results were 1639.9RU, 1747.8RU, and 1702.2RU, respectively.
4) Blocking of the CM5 chip: The CM5 chip was blocked with 1 M ethanolamine at a flow rate of 10 μL/min for 420 seconds.
5) Analyte concentration: The compound to be tested was diluted with the buffer. The compound to be tested was diluted from 100 nM to 0.78 nM in a 2-fold gradient.
6) Sample injection analysis: Each concentration of the working solution of the compound to be tested corresponded to one cycle, with a flow rate of 30 μL/min for binding for 180 seconds and dissociating for 180 seconds. The last cycle was a 5% DMSO solvent correction cycle.
7) All results were subjected to kinetics fitting analysis based on a 1:1 model. […]

[1] = Metabolic stability in hepatocytes, CD-1 mice; type: in vitro ADME; details: mouse, hepatocytes (cryopreserved, suspension), CD-1 mice hepatocytes, 0.5×10^6 cells/mL
Method: Test Example 7: Metabolic Stability of the Compounds of the Present Invention in Hepatocytes from Mice, Rats, Cynomolgus Macaques, and Humans
To investigate the metabolic stability of the compounds of the present invention in hepatocytes from mice, rats, Cynomolgus macaques, and humans.
Incubations were performed in 96-well plates using an external extraction method. Several 96-well sample precipitation plates, designated T0, T15, T30, T60, T90, TO-MC, T90-MC, and blank matrix, were prepared, respectively. The recovery culture medium and incubation culture medium were removed in advance and placed in a 37° C. water bath for preheating. […]
At the end of the incubation at the corresponding time point, the incubation plates were removed, from which 25 μL of a compound mixture with the cells and a control compound mixture with the cells were removed and added to sample plates containing 125 μL of stop buffer, respectively. […] All samples were mixed uniformly and then analyzed by the LC-MS/MS method.
The concentration of the compound to be tested and the concentration of the control in the sample were semi-quantitatively determined by the liquid chromatography-tandem mass spectrometry (LC-MS/MS) method without a standard curve and quality control sample. […]

CC[C@H](C)[C@@H]([C@@H](CC(=O)N1CCC[C@H]1[C@H](OC)[C@@H](C)C(=O)N[C@H](C)[C@@H](O)c1ccccc1)OC)N(C)C(=O)[C@@H](NC(=O)[C@H](C(C)C)N(C)C(=O)OCc1ccc(NC(=O)[C@H](CCCNC(N)=O)NC(=O)[C@@H](NC(=O)CCCC(=O)NCCC(=O)N(C)CC(=O)N(C)CC(=O)N(C)CC(=O)N(C)CC(=O)N(C)CC(=O)N(C)CC(=O)N(C)CC(=O)N(C)CC(=O)N(C)CC(=O)N(C)CC(=O)N[C@H]2CCCCNC(=O)C[C@@H](C(=O)N[C@H]3CSCCC(=O)N4CN5CN(C4)C(=O)CCSC(C)(C)[C@H](NC(=O)[C@@H](CC(=O)O)NC(=O)[C@H](Cc4cccc6ccccc46)NC(=O)[C@@H]4CCCN4C3=O)C(=O)N[C@@H](CCSC)C(=O)N[C@@H](CCCCNC(=N)N)C(=O)N[C@@H](CC(=O)O)C(=O)N[C@@H](Cc3c[nH]c4ccccc34)C(=O)N[C@@H](CO)C(=O)N[C@@H]([C@@H](C)O)C(=O)N3CCC[C@H]3C(=O)N3C[C@H](O)C[C@H]3C(=O)N[C@@H](Cc3c[nH]c4ccccc34)C(=O)N[C@H](C(N)=O)CSCCC5=O)NC(=O)CN(C)C2=O)C(C)C)cc1)C(C)C [Acetate salt of PDC_2] (I: [Sar][Sar][Sar][Sar][Sar][Sar][Sar][Sar][Sar][Sar]K[Sar]DCP[1Nal][dD][Pen]M[hArg]DWSTP[Hyp]WC-NH2 / II: V[Cit][PABC][NMeV]V[Dil][Dolaproine]-X1; lactam I:11-I:13; linker I:14-I:18-I:28 via TATA; linker I:N-II:N via X2)
Kd (Human Nectin-4): 0.43 nM | half-life at 1 μM [1]: > 3.61 h | CLint scaled at 1 μM ([1]; read-out: CLint (liver)): < 75.9 mL/min/kg
